Targets include human CXCR4 A180D (Homo sapiens, UniProt P61073-1, A180D); human CXCR4 P191A (Homo sapiens, UniProt P61073-1, P191A); human CXCR4 L194W195A2 (Homo sapiens, UniProt P61073, L194W195A2); human CXCR4 D187RFY190A4 (Homo sapiens, UniProt P61073, D187RFY190A4); human CXCR4 D182A (Homo sapiens, UniProt P61073-1, D182A); human CXCR4 D181A (Homo sapiens, UniProt P61073-1, D181A); human CXCR4 N176VSE179A4 (Homo sapiens, UniProt P61073, N176VSE179A4); human CXCR4 A175D (Homo sapiens, UniProt P61073-1, A175D); human CXCR4 E179A (Homo sapiens, UniProt P61073-1, E179A).

Test in all cases: flow cytometry on cells
On the technique in general: A flow cytometer gives signals particle by particle.

Experiment [1] deals with human CXCR4, endogenous on 293X cells (Homo sapiens, UniProt P61073).
In experiment [2] the target is human CXCR4 D181DRYI185A5 (Homo sapiens, UniProt P61073, D181DRYI185A5).
Experiment [3] has as its target human CXCR4 (G-protein C-X-C chemokine receptor 4), expressed on CHO cells (Homo sapiens, UniProt P61073-1).

Where a chain is given by its changes, count along the chain named. Names may count otherwise.

B1: MEDI3185 variant VH W52/Y52A/D53 to Ala (CDR2H) (antibody, V domains shown)
VH: QVQLVESGGGVVQPGRSLRLSCAASGFTFSNYVMHWVRQAPGKGLEWVAVIAAAGSNKYYADSVKGRFTISRDNSKNTLSLQMNSLRAEDTAVYYCERGEGYYGSGSRYRGYYYGMDVWGQGTTVTVSS
VL: DIQMTQSPSSLSASVGDRVTITCRASQGIRTDLGWYQQKPGKAPKRLIYAASSLQSGVPSRFSGSGSGTEFTLTISSLQPEDFATYYCLQHNSYPRTFGQGTKVEIK
Regarding B1, the binding result in experiment [1] is on record as “binds”.

B2: MEDI3185 (antibody, V domains shown)
VH: B1 VH with A52W, A53Y, A54D
VL: B1 VL
B2: the dissociation constant Kd is 0.32 nM with human CXCR4 A180D; 0.36 nM with human CXCR4 P191A; 0.3 nM in the experiment with human CXCR4 L194W195A2; 0.37 nM with human CXCR4 D187RFY190A4; 0.32 nM in the experiment with human CXCR4 D182A; 0.31 nM in the experiment with human CXCR4 D181A. Besides, the Kd was 0.28 nM in experiment [2]; 0.37 nM in the experiment with human CXCR4 N176VSE179A4; 0.21 nM with human CXCR4 A175D; 0.32 nM in experiment [3]; 0.25 nM with human CXCR4 E179A.

B3: MEDI3185 variant VH N31A/Y32A/V33A (CDR1H) (antibody, V domains shown)
VH: B1 VH with N31A, Y32A, V33A, A52W, A53Y, A54D
VL: B1 VL
For the molecule B3, in experiment [1], the binding result is listed as “binds”.

B4: MEDI3185 variant VL P95 to Ala (CDR3L) (antibody, V domains shown)
VH: B1 VH with A52W, A53Y, A54D
VL: B1 VL with P95A
Take B4: the binding result in experiment [1] was “binds”.

B5: MEDI3185 variant VL A50/A51 to Gly, S52 to Ala (CDR2L) (antibody, V domains shown)
VH: B1 VH with A52W, A53Y, A54D
VL: B1 VL with A50G, A51G, S52A
B5: the binding result in experiment [1] is given as “binds”.

B6: MEDI3185 variant VH G54/S55/N56 to Ala (CDR2H) (antibody, V domains shown)
VH: B1 VH with A52W, A53Y, A54D, G55A, S56A, N57A
VL: B1 VL
As for B6, the binding result in [1] is given as “binds”.

B7: MEDI3185 variant VL N92/S93/Y94 to Ala (CDR3L) (antibody, V domains shown)
VH: B1 VH with A52W, A53Y, A54D
VL: B1 VL with N92A, S93A, Y94A
Consider B7, for which, in experiment [1], the binding result is “binds”.

B8: MEDI3185 variant VL Q27A/G28A/I29A (CDR1L) (antibody, V domains shown)
VH: B1 VH with A52W, A53Y, A54D
VL: B1 VL with Q27A, G28A, I29A
In the case of B8, in [1], the binding result is reported as “binds”.

What is called Kd is the constant that tells how readily two partners part at equilibrium. A low value points to higher affinity.
